In the supplement of paper PMC11136658:

Test system: peptide library, one residue held at a place counted from the Y acceptor
Test: relative phosphorylation of the sub-library (ratio to the mean residue at this position); higher = residue favoured
Outline: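 In 384-well plates, purified recombinant kinases were incubated for 90 min with 50 μM ATP containing γ-32P-ATP and biotinylated Tyr-centred peptide libraries, each mixture fixing one residue at a single position between −5 and +5. After capture on streptavidin membranes and rinsing, peptides were quantified by phosphorimaging with ImageQuant. Per-position intensities were scaled to the sum of the 18 (Ser/Thr-free library: 16) randomized residues, then multiplied by that number.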

Sequence of MET, construct: aa956-end, human (P08581 956-1390, looked up): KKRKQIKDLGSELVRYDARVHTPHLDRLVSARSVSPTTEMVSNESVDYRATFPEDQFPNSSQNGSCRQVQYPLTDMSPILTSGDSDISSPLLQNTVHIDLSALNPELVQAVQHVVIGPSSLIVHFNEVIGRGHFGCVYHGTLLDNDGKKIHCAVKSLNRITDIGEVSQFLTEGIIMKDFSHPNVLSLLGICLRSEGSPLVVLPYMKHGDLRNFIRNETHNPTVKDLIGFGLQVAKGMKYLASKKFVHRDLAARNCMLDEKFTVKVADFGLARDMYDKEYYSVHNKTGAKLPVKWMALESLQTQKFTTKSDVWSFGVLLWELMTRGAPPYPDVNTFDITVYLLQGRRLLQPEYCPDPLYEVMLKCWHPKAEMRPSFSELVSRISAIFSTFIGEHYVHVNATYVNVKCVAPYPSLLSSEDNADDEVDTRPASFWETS
Sequence of MERTK, construct: aa578-872, human (Q12866 578-872, looked up): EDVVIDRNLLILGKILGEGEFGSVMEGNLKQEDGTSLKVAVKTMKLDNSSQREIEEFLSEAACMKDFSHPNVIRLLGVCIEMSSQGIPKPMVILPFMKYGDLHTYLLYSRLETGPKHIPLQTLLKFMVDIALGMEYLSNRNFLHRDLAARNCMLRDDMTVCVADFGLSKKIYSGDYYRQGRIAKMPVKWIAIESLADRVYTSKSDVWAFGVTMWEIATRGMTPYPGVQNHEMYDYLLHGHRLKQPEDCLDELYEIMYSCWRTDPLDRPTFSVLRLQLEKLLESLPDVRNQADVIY

MERTK, construct: aa578-872, human (from UniProt Q12866)
relative phosphorylation
Details	at +1	at +2	at +3	at +4	at +5	at -1	at -2	at -3	at -4	at -5
A fixed	2.07	0.87	0.578	0.92	1.15	0.711	1.06	1.01	1.28	1.1
D fixed	0.89	0.601	0.483	0.962	0.839	0.591	0.967	1.27	1.12	0.979
E fixed	1.69	1.01	0.426	1.27	0.786	0.468	1.28	1.55	1.44	0.974
F fixed	1.01	1.64	1.93	1.14	0.565	1.75	0.655	0.836	0.595	1.03
G fixed	0.859	0.321	0.63	1.37	1.61	0.299	1.63	1.28	1.46	1.31
H fixed	0.791	0.687	0.848	1.12	1.01	1.4	0.989	0.875	0.891	0.994
I fixed	0.708	1.34	1.58	0.549	0.621	2.37	0.533	0.482	0.84	0.889
K fixed	0.25	0.594	0.254	0.822	0.996	0.436	0.948	0.746	0.911	1.05
L fixed	0.831	1.4	2.13	0.799	0.745	2.69	0.777	0.863	1.02	0.993
M fixed	1.4	1.2	1.64	1.09	0.917	1.14	0.68	0.967	0.968	1
N fixed	0.447	0.768	0.465	0.76	0.879	0.842	1.26	1.21	0.926	1.13
P fixed	0.172	0.684	1.17	1.2	2.65	0.481	1.18	1.32	1.25	1.24
Q fixed	1.04	0.695	0.72	0.962	0.81	0.63	1.19	0.953	1.16	1.09
R fixed	0.353	0.679	0.392	1.07	0.991	0.439	1.09	0.775	1.2	1.13
S fixed	1.33	0.725	0.562	0.926	1.08	0.517	1.34	1.16	0.807	0.783
T fixed	1.3	0.973	0.838	1	0.97	0.939	1.1	1.17	0.667	0.874
V fixed	1.53	1.33	1.55	0.904	0.756	1.38	0.842	0.803	0.866	0.862
W fixed	1.34	2.47	1.8	1.14	0.608	0.916	0.484	0.743	0.594	0.564
pThr fixed	1.89	1.18	0.3	0.633	0.568	0.718	0.915	1.1	0.901	0.902
pTyr fixed	1.96	2.62	0.613	0.678	0.61	2.26	1.19	1.46	1.13	0.957

MET, construct: aa956-end, human (from UniProt P08581)
relative phosphorylation
Details	at +1	at +2	at +3	at +4	at +5	at -1	at -2	at -3	at -4	at -5
A fixed	1.33	1.03	0.632	0.901	1.11	0.739	1.1	0.977	1.04	1.05
D fixed	0.433	0.808	0.32	0.658	0.938	1.86	1.52	1.64	1.4	1.27
E fixed	0.821	0.83	0.252	0.581	0.861	1.37	1.45	1.79	1.61	1.09
F fixed	1.25	1.07	1.28	1.3	1.05	0.688	0.534	0.663	0.914	0.869
G fixed	0.609	0.616	0.564	1.02	0.906	0.478	1.21	1.22	1.21	1.11
H fixed	1.34	0.874	0.869	0.998	0.879	1.24	0.819	0.911	0.916	1
I fixed	1.4	0.913	2.4	0.797	0.796	1.7	0.711	0.529	0.737	0.721
K fixed	0.531	0.705	0.431	0.87	0.978	0.496	0.738	0.866	0.86	1.19
L fixed	0.758	0.935	1.9	0.771	1.02	1.06	0.704	0.558	0.728	0.724
M fixed	0.84	0.833	1.43	0.883	0.965	0.774	0.583	0.596	0.746	0.733
N fixed	0.574	1.29	0.537	0.875	1.02	1.26	1.16	1.37	0.984	0.995
P fixed	0.442	0.961	1.36	1.09	1.21	0.659	1.59	1.22	1.18	1.16
Q fixed	1.21	1.03	0.578	0.994	0.932	1.12	1.17	1.1	1.07	0.976
R fixed	0.887	1.07	0.554	1.06	1.05	0.597	0.88	0.918	0.995	1.18
S fixed	1.11	1.25	0.616	0.957	1.2	0.704	1.34	1.27	0.948	1
T fixed	1.26	1.18	0.723	0.899	1.02	1.11	0.99	0.977	0.767	0.893
V fixed	1.99	1.07	1.72	0.851	0.867	1.21	0.868	0.605	0.711	0.735
W fixed	1.22	1.54	1.84	2.49	1.2	0.931	0.629	0.784	1.19	1.31
pThr fixed	1.16	1.4	0.271	0.399	0.597	2.21	1.93	1.77	1.38	1.32
pTyr fixed	3.19	2.63	0.524	0.871	0.771	4.16	1.47	1.82	2.14	1.64
